According to US20220125891A1 (OSAKA UNIVERSITY, published 2022):
Positions of bridges follow the written chain, without caps; N, C: chain ends. Non-standard residues stand in square brackets, D forms with d. No end group written: not given here. NMeA = CN[C@@H](C)C(=O)O; dNMeA = CN[C@H](C)C(=O)O

T1: full-length human Regnase-1 with a FLAG tag on the N-terminal side and a biotin ligase BirA recognition … (human, UniProt Q5D1E8 1-599, biotinylated where required ; Biotinylated at the BirA recognition sequence where required. That sequence is not in the letters.)
T1 construct: Expressed in Expi293 cells, purified on FLAG M2 agarose and by gel filtration; also called full-length Regnase-1; human full-length Regnase-1
T1 sequence: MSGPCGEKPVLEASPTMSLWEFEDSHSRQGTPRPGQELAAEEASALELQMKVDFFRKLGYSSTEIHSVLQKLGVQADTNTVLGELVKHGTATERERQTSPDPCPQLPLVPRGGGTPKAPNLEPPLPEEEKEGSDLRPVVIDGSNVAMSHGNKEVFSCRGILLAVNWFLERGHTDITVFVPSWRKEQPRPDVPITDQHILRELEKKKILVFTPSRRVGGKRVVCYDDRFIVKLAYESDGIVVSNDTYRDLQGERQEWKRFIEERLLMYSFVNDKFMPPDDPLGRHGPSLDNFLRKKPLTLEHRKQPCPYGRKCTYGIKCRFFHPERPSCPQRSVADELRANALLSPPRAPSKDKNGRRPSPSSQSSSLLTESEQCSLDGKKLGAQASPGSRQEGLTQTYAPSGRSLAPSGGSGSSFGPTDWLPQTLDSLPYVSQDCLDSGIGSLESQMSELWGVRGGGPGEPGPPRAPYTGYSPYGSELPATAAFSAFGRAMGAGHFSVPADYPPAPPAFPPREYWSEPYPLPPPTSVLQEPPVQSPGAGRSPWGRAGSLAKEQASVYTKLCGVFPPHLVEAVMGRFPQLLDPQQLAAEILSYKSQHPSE

T2: Reg1_301-599 (human Regnase-1 amino acids 301 to 599, FLAG tag on the N-terminal side, BirA recognition … (human))
T2 sequence (Q5D1E8 301-599, looked up): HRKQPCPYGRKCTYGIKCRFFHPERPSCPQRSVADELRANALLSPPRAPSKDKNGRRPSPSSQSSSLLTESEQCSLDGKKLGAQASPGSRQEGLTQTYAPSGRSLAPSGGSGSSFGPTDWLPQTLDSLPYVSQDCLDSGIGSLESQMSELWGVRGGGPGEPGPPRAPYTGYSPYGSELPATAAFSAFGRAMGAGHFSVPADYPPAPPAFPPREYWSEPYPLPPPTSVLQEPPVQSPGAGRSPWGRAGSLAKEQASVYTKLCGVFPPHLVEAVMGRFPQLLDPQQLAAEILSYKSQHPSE


Molecular target: T1, full-length human Regnase-1 with a FLAG …
Assay: affinity selection-MS (SEC, LC/MS), 1 µM each

Binder | AS-MS ratio(%)
[NMeA]NFSNSWYNIWD (lactam N-12) [PP16] | 17.9%
[NMeA]KFAQFRWIYPD (lactam N-12) [PP11] | 5.1%
[dNMeA]EDTPEDDHD (lactam N-10) [PP25] | 6.9%
[NMeA]NSWYINIWGHD (lactam N-12) [PP15] | 66.7%
[NMeA]NYQSWYYRSIWD (lactam N-13) [PP10] | 3.7%
[dNMeA]SKYWNSWYNIWD (lactam N-13) [PP8] | 6.2%
[NMeA]DIWFDYWDWD (lactam N-11) [PP17] | 67.8%
[NMeA]DIWFDYWDYD (lactam N-11) [PP18] | 71.6%

Molecular target: T3, ΔCTD_Reg1 (human Regnase-1 amino acids 1 to 546, FLAG tag on the N-terminal side, BirA recognition sequence … (human))
Assay: cell-based or functional assay

Binder | IC50, phosphorylation by TBK1
[NMeA]NFSNSWYNIWD (lactam N-12) [PP16] | 38.1 µM
[NMeA]KFAQFRWIYPD (lactam N-12) [PP11] | 55.6 µM
[dNMeA]EDTPEDDHD (lactam N-10) [PP25] | 16.1 µM
[NMeA]NSWYINIWGHD (lactam N-12) [PP15] | 9.5 µM
[NMeA]NYQSWYYRSIWD (lactam N-13) [PP10] | 0.2 µM
[dNMeA]SKYWNSWYNIWD (lactam N-13) [PP8] | 5.5 µM
[NMeA]DIWFDYWDWD (lactam N-11) [PP17] | 0.3 µM
[NMeA]DIWFDYWDYD (lactam N-11) [PP18] | 1.8 µM

Molecular target: T2, Reg1_301-599 (human Regnase-1 amino …)
Assay: cell-based or functional assay

Binder | IC50, phosphorylation by TBK1
[NMeA]NFSNSWYNIWD (lactam N-12) [PP16] | > 62.1 µM
[NMeA]KFAQFRWIYPD (lactam N-12) [PP11] | > 62.1 µM
[dNMeA]EDTPEDDHD (lactam N-10) [PP25] | 16.3 µM
[NMeA]NSWYINIWGHD (lactam N-12) [PP15] | 17.4 µM
[NMeA]NYQSWYYRSIWD (lactam N-13) [PP10] | 0.4 µM
[dNMeA]SKYWNSWYNIWD (lactam N-13) [PP8] | 6 µM
[NMeA]DIWFDYWDWD (lactam N-11) [PP17] | < 0.06 µM
[NMeA]DIWFDYWDYD (lactam N-11) [PP18] | 0.9 µM

Molecular target: T1, full-length human Regnase-1 with a FLAG …
Assay: cell-based or functional assay

Binder | IC50, phosphorylation by TBK1
[NMeA]NFSNSWYNIWD (lactam N-12) [PP16] | 52.4 µM
[NMeA]KFAQFRWIYPD (lactam N-12) [PP11] | 29.1 µM
[dNMeA]EDTPEDDHD (lactam N-10) [PP25] | 18.9 µM
[NMeA]NSWYINIWGHD (lactam N-12) [PP15] | 8.5 µM
[NMeA]NYQSWYYRSIWD (lactam N-13) [PP10] | 0.2 µM
[dNMeA]SKYWNSWYNIWD (lactam N-13) [PP8] | 2.9 µM
[NMeA]DIWFDYWDWD (lactam N-11) [PP17] | < 0.06 µM
[NMeA]DIWFDYWDYD (lactam N-11) [PP18] | 0.6 µM

Molecular target: T1, full-length human Regnase-1 with a FLAG …
Assay: AlphaScreen, blocks TBK1 binding to FL_Reg1

Binder | IC50
[NMeA]NFSNSWYNIWD (lactam N-12) [PP16] | 20.2 µM
[NMeA]KFAQFRWIYPD (lactam N-12) [PP11] | 60.9 µM
[dNMeA]EDTPEDDHD (lactam N-10) [PP25] | 13.1 µM
[NMeA]NSWYINIWGHD (lactam N-12) [PP15] | 13.7 µM
[NMeA]NYQSWYYRSIWD (lactam N-13) [PP10] | 9.8 µM
[dNMeA]SKYWNSWYNIWD (lactam N-13) [PP8] | 6.5 µM
[NMeA]DIWFDYWDWD (lactam N-11) [PP17] | < 0.06 µM
[NMeA]DIWFDYWDYD (lactam N-11) [PP18] | < 0.06 µM

Molecular target: T3, ΔCTD_Reg1 (human Regnase-1 amino acids …)
Assay: cell-based or functional assay
Remark: another data set of the same source

Binder | IC50, phosphorylation by IKKβ
[NMeA]NFSNSWYNIWD (lactam N-12) [PP16] | 30.8 µM
[NMeA]KFAQFRWIYPD (lactam N-12) [PP11] | > 62.1 µM
[dNMeA]EDTPEDDHD (lactam N-10) [PP25] | 47.7 µM
[NMeA]NSWYINIWGHD (lactam N-12) [PP15] | 31 µM
[NMeA]NYQSWYYRSIWD (lactam N-13) [PP10] | 2.6 µM
[dNMeA]SKYWNSWYNIWD (lactam N-13) [PP8] | 7.8 µM
[NMeA]DIWFDYWDWD (lactam N-11) [PP17] | 0.3 µM
[NMeA]DIWFDYWDYD (lactam N-11) [PP18] | 0.2 µM

Molecular target: T2, Reg1_301-599 (human Regnase-1 amino …)
Assay: cell-based or functional assay
Remark: another data set of the same source

Binder | IC50, phosphorylation by IKKβ
[NMeA]NFSNSWYNIWD (lactam N-12) [PP16] | 42.2 µM
[NMeA]KFAQFRWIYPD (lactam N-12) [PP11] | > 62.1 µM
[dNMeA]EDTPEDDHD (lactam N-10) [PP25] | 27.6 µM
[NMeA]NSWYINIWGHD (lactam N-12) [PP15] | 22 µM
[NMeA]NYQSWYYRSIWD (lactam N-13) [PP10] | 1.8 µM
[dNMeA]SKYWNSWYNIWD (lactam N-13) [PP8] | 5.7 µM
[NMeA]DIWFDYWDWD (lactam N-11) [PP17] | 0.7 µM
[NMeA]DIWFDYWDYD (lactam N-11) [PP18] | 0.5 µM

Molecular target: T1, full-length human Regnase-1 with a FLAG …
Assay: cell-based or functional assay
Remark: another data set of the same source

Binder | IC50, phosphorylation by IKKβ
[NMeA]NFSNSWYNIWD (lactam N-12) [PP16] | 20.6 µM
[NMeA]KFAQFRWIYPD (lactam N-12) [PP11] | 22.3 µM
[dNMeA]EDTPEDDHD (lactam N-10) [PP25] | 27 µM
[NMeA]NSWYINIWGHD (lactam N-12) [PP15] | 5.6 µM
[NMeA]NYQSWYYRSIWD (lactam N-13) [PP10] | 0.5 µM
[dNMeA]SKYWNSWYNIWD (lactam N-13) [PP8] | 1.4 µM
[NMeA]DIWFDYWDWD (lactam N-11) [PP17] | 0.5 µM
[NMeA]DIWFDYWDYD (lactam N-11) [PP18] | 0.4 µM

Molecular target: T1, full-length human Regnase-1 with a FLAG …
Assay: AlphaScreen, blocks IKKβ binding to FL_Reg1

Binder | IC50
[NMeA]NFSNSWYNIWD (lactam N-12) [PP16] | > 62.1 µM
[NMeA]KFAQFRWIYPD (lactam N-12) [PP11] | > 62.1 µM
[dNMeA]EDTPEDDHD (lactam N-10) [PP25] | > 62.1 µM
[NMeA]NSWYINIWGHD (lactam N-12) [PP15] | 33.7 µM
[NMeA]NYQSWYYRSIWD (lactam N-13) [PP10] | 11.4 µM
[dNMeA]SKYWNSWYNIWD (lactam N-13) [PP8] | 7.4 µM
[NMeA]DIWFDYWDWD (lactam N-11) [PP17] | < 0.06 µM
[NMeA]DIWFDYWDYD (lactam N-11) [PP18] | < 0.06 µM
